This is an account of results in patent US20130344077A1 (VET THERAPEUTICS, published 2013).

Sequences and labels used below:
T1: human CD52 on human T-cell lymphoma HUT-78 cells (human, UniProt P31358 25-36)
T1 construct: whole, on cells; also called CAMPATH-1 antigen; CD52 positive lymphoma cells
T1 chain (looked up): GQNDTSQTSSPS

B1: VET114 VET224 antibody variant (anti-CD52, canine FR4 in both chains) (antibody)
light: DIKMTQSPSFLSASVGDRVTLNCKASQNIDKYLNWYQQKLGESPKLLIYNTNNLQTGIPSRFSGSGSGTDFTLTISSLQPEDVATYFCLQHISRPRTFGGGTHLTVLGQPKASPSVTLFPPSSEELGANKATLVCLISDFYPSGVTVAWKADGSPITQGVETTKPSKQSNNKYAASSYLSLTPDKWKSHSSFSCLVTHEGSTVEKKVAPAECS
heavy: EVKLLESGGGLVQPGGSMRLSCAGSGFTFTDFYMNWIRQPAGKAPEWLGFIRDKAKGYTTEYNPSVKGRFTISRDNTQNMLYLQMNTLRAEDTATYYCAREGHTAAPFDYWGQGTLVTVSSASTTAPSVFPLAPSCGSTSGSTVALACLVSGYFPEPVTVSWNSGSLTSGVHTFPSVLQSSGLYSLSSMVTVPSSRWPSETFTCNVAHPASKTKVDKPVPKRENGRVPRPPDCPKCPAPEMLGGPSVFIFPPKPKDTLLIARTPEVTCVVVDLDPEDPEVQISWFVDGKQMQTAKTQPREEQFNGTYRVVSVLPIGHQDWLKGKQFTCKVNNKALPSPIERTISKARGQAHQPSVYVLPPSREELSKNTVSLTCLIKDFFPPDIDVEWQSNGQQEPESKYRTTPPQLDEDGSYFLYSKLSVDKSRWQRGDTFICAVMHEALHNHYTQKSLSHSPGK
notes: Constant domains are added as separate pieces because the printed entries are variable domains only
B2: VET112 VET223 antibody variant (anti-CD52, canine FR1 and FR4 in both chains) (antibody)
light: QSVLTQPASVSGSLGQRVTISCKASQNIDKYLNWYQQKLGESPKLLIYNTNNLQTGIPSRFSGSGSGTDFTLTISSLQPEDVATYFCLQHISRPRTFGGGTHLTVGQPKASPSVTLFPPSSEELGANKATLVCLISDFYPSGVTVAWKADGSPITQGVETTKPSKQSNNKYAASSYLSLTPDKWKSHSSFSCLVTHEGSTVEKKVAPAECS
heavy: EVQLVESGGDLVKPGGSLRLSCAGSGFTFTDFYMNWIRQPAGKAPEWLGFIRDKAKGYTTEYNPSVKGRFTISRDNTQNMLYLQMNTLRAEDTATYYCAREGHTAAPFDYWGQGTLVTVSSASTTAPSVFPLAPSCGSTSGSTVALACLVSGYFPEPVTVSWNSGSLTSGVHTFPSVLQSSGLYSLSSMVTVPSSRWPSETFTCNVAHPASKTKVDKPVPKRENGRVPRPPDCPKCPAPEMLGGPSVFIFPPKPKDTLLIARTPEVTCVVVDLDPEDPEVQISWFVDGKQMQTAKTQPREEQFNGTYRVVSVLPIGHQDWLKGKQFTCKVNNKALPSPIERTISKARGQAHQPSVYVLPPSREELSKNTVSLTCLIKDFFPPDIDVEWQSNGQQEPESKYRTTPPQLDEDGSYFLYSKLSVDKSRWQRGDTFICAVMHEALHNHYTQKSLSHSPGK
notes: as for B1
B3: VET114 VET223 antibody variant (anti-CD52) (antibody)
light: DIKMTQSPSFLSASVGDRVTLNCKASQNIDKYLNWYQQKLGESPKLLIYNTNNLQTGIPSRFSGSGSGTDFTLTISSLQPEDVATYFCLQHISRPRTFGGGTHLTVLGQPKASPSVTLFPPSSEELGANKATLVCLISDFYPSGVTVAWKADGSPITQGVETTKPSKQSNNKYAASSYLSLTPDKWKSHSSFSCLVTHEGSTVEKKVAPAECS
heavy: EVQLVESGGDLVKPGGSLRLSCAGSGFTFTDFYMNWIRQPAGKAPEWLGFIRDKAKGYTTEYNPSVKGRFTISRDNTQNMLYLQMNTLRAEDTATYYCAREGHTAAPFDYWGQGTLVTVSSASTTAPSVFPLAPSCGSTSGSTVALACLVSGYFPEPVTVSWNSGSLTSGVHTFPSVLQSSGLYSLSSMVTVPSSRWPSETFTCNVAHPASKTKVDKPVPKRENGRVPRPPDCPKCPAPEMLGGPSVFIFPPKPKDTLLIARTPEVTCVVVDLDPEDPEVQISWFVDGKQMQTAKTQPREEQFNGTYRVVSVLPIGHQDWLKGKQFTCKVNNKALPSPIERTISKARGQAHQPSVYVLPPSREELSKNTVSLTCLIKDFFPPDIDVEWQSNGQQEPESKYRTTPPQLDEDGSYFLYSKLSVDKSRWQRGDTFICAVMHEALHNHYTQKSLSHSPGK
notes: as for B1
B4: VET112 VET224 antibody variant (anti-CD52) (antibody)
light: QSVLTQPASVSGSLGQRVTISCKASQNIDKYLNWYQQKLGESPKLLIYNTNNLQTGIPSRFSGSGSGTDFTLTISSLQPEDVATYFCLQHISRPRTFGGGTHLTVGQPKASPSVTLFPPSSEELGANKATLVCLISDFYPSGVTVAWKADGSPITQGVETTKPSKQSNNKYAASSYLSLTPDKWKSHSSFSCLVTHEGSTVEKKVAPAECS
heavy: EVKLLESGGGLVQPGGSMRLSCAGSGFTFTDFYMNWIRQPAGKAPEWLGFIRDKAKGYTTEYNPSVKGRFTISRDNTQNMLYLQMNTLRAEDTATYYCAREGHTAAPFDYWGQGTLVTVSSASTTAPSVFPLAPSCGSTSGSTVALACLVSGYFPEPVTVSWNSGSLTSGVHTFPSVLQSSGLYSLSSMVTVPSSRWPSETFTCNVAHPASKTKVDKPVPKRENGRVPRPPDCPKCPAPEMLGGPSVFIFPPKPKDTLLIARTPEVTCVVVDLDPEDPEVQISWFVDGKQMQTAKTQPREEQFNGTYRVVSVLPIGHQDWLKGKQFTCKVNNKALPSPIERTISKARGQAHQPSVYVLPPSREELSKNTVSLTCLIKDFFPPDIDVEWQSNGQQEPESKYRTTPPQLDEDGSYFLYSKLSVDKSRWQRGDTFICAVMHEALHNHYTQKSLSHSPGK
notes: as for B1
B5: VET111 VET222 chimeric antibody (rat anti-human CD52 variable domains on canine constant domains) (antibody)
light: DIKMTQSPSFLSASVGDRVTLNCKASQNIDKYLNWYQQKLGESPKLLIYNTNNLQTGIPSRFSGSGSGTDFTLTISSLQPEDVATYFCLQHISRPRTFGTGTKLELKGQPKASPSVTLFPPSSEELGANKATLVCLISDFYPSGVTVAWKADGSPITQGVETTKPSKQSNNKYAASSYLSLTPDKWKSHSSFSCLVTHEGSTVEKKVAPAECS
heavy: EVKLLESGGGLVQPGGSMRLSCAGSGFTFTDFYMNWIRQPAGKAPEWLGFIRDKAKGYTTEYNPSVKGRFTISRDNTQNMLYLQMNTLRAEDTATYYCAREGHTAAPFDYWGQGVMVTVSSASTTAPSVFPLAPSCGSTSGSTVALACLVSGYFPEPVTVSWNSGSLTSGVHTFPSVLQSSGLYSLSSMVTVPSSRWPSETFTCNVAHPASKTKVDKPVPKRENGRVPRPPDCPKCPAPEMLGGPSVFIFPPKPKDTLLIARTPEVTCVVVDLDPEDPEVQISWFVDGKQMQTAKTQPREEQFNGTYRVVSVLPIGHQDWLKGKQFTCKVNNKALPSPIERTISKARGQAHQPSVYVLPPSREELSKNTVSLTCLIKDFFPPDIDVEWQSNGQQEPESKYRTTPPQLDEDGSYFLYSKLSVDKSRWQRGDTFICAVMHEALHNHYTQKSLSHSPGK
notes: Expressed in 293F cells and used as supernatant or protein A purified
B6: VET106 VET217 anti-canine lymphoma antibody variant (mab 231 variable domains, canine lambda constant) (antibody)
light: DIQMNQSPSSLSASLGDTITITCHASQNINVWLSWYQQKPGNIPKLLIYKASNLHTGVPSRFSGSGSGTGFTLTISSLQPEDIATYYCQQGQSYPLTFGGGTKLEIKGQPKASPSVTLFPPSSEELGANKATLVCLISDFYPSGVTVAWKADGSPITQGVETTKPSKQSNNKYAASSYLSLTPDKWKSHSSFSCLVTHEGSTVEKKVAPAECS
heavy: EVKLVESGGGLVQPGGSLKLSCATSGFTFSDYYMYWVRQTPEKRLEWVAYISNGGGSTYYPDTVKGRFTISRDNAKNTLYLQMSRLKSEDTAMYYCARHGGYYAMDYWGQGTLVTVSSASTTAPSVFPLAPSCGSTSGSTVALACLVSGYFPEPVTVSWNSGSLTSGVHTFPSVLQSSGLYSLSSMVTVPSSRWPSETFTCNVAHPASKTKVDKPVPKRENGRVPRPPDCPKCPAPEMLGGPSVFIFPPKPKDTLLIARTPEVTCVVVDLDPEDPEVQISWFVDGKQMQTAKTQPREEQFNGTYRVVSVLPIGHQDWLKGKQFTCKVNNKALPSPIERTISKARGQAHQPSVYVLPPSREELSKNTVSLTCLIKDFFPPDIDVEWQSNGQQEPESKYRTTPPQLDEDGSYFLYSKLSVDKSRWQRGDTFICAVMHEALHNHYTQKSLSHSPGK
B7: VET107 VET217 anti-canine lymphoma antibody variant (mab 231 variable domains, canine kappa constant) (antibody)
light: DIQMNQSPSSLSASLGDTITITCHASQNINVWLSWYQQKPGNIPKLLIYKASNLHTGVPSRFSGSGSGTGFTLTISSLQPEDIATYYCQQGQSYPLTFGGGTKLEIKNDAQPAVYLFQPSPDQLHTGSASVVCLLNSFYPKDINVKWKVDGVIQDTGIQESVTEQDKDSTYSLSSTLTMSSTEYLSHELYSCEITHKSLPSTLIKSFQRSECQRVD
heavy: EVKLVESGGGLVQPGGSLKLSCATSGFTFSDYYMYWVRQTPEKRLEWVAYISNGGGSTYYPDTVKGRFTISRDNAKNTLYLQMSRLKSEDTAMYYCARHGGYYAMDYWGQGTLVTVSSASTTAPSVFPLAPSCGSTSGSTVALACLVSGYFPEPVTVSWNSGSLTSGVHTFPSVLQSSGLYSLSSMVTVPSSRWPSETFTCNVAHPASKTKVDKPVPKRENGRVPRPPDCPKCPAPEMLGGPSVFIFPPKPKDTLLIARTPEVTCVVVDLDPEDPEVQISWFVDGKQMQTAKTQPREEQFNGTYRVVSVLPIGHQDWLKGKQFTCKVNNKALPSPIERTISKARGQAHQPSVYVLPPSREELSKNTVSLTCLIKDFFPPDIDVEWQSNGQQEPESKYRTTPPQLDEDGSYFLYSKLSVDKSRWQRGDTFICAVMHEALHNHYTQKSLSHSPGK

For one test, the target named is T1, human CD52 on human T-cell lymphoma …. The test is described as follows: FACS on HUT-78 cells, about 2 ug primary antibody, FITC goat anti-dog IgG secondary. As to the method: The binding of the antibody variants of the present invention was assessed using a fluorescence-activated cell sorter (FACS). In the present example, the antibody variants were incubated with the CD52 positive cells and the amount of bound antibody was assessed following incubation with a fluorescent-labeled reporter reagent. The reporter was thereafter measured by FACS.
Briefly, for each assay, one million cells of the human T-cell lymphoma HUT-78 cells were resuspended in FACS buffer (PBS+2% FBS). About 2 ug of the primary antibody were added to the cells and the samples were incubated at 4° C. for 1 hour. The primary antibody was provided as supernatants from transfected cells with recombinant antibody constructs or from purified antibody preparation. The rat anti-human CD52 mAb (Serotec) was added to the cells as a control. One ml of FACS buffer was added and cells were spin down for 3 min at 800×g in Eppendorf microcentrifuge. The cells were washed with 1 ml FACS buffer and spin down again. The secondary antibodies such as fluorescein-isothiocynate (FITC) conjugated goat anti-rat (Jackson ImmunoResearch), or the FITC-conjugated goat anti-dog IgG (H+L) (Bethyl Laboratories) were added in 100 μl of FACS buffer supplemented with 1% BSA to appropriate tubes and the tubes were incubated at 4° C. for 30 minutes. The wash steps were repeated. The cells were then resuspended in 500 μl FACS buffer and transferred into 12×75 mm polystyrene test tubes. The cells were analyzed by FACS with a FacScan cytometer using the CellQuest software (Becton-Dickenson). Several controls were utilized to determine the background fluorescence: (i) one tube of cells was incubated with the FITC-conjugated secondary antibody without the primary antibody, (ii) one tube of cells was incubated with PBS only, and (iii) one tube was incubated with the primary antibody without the FITC-conjugated secondary antibody.
On to B1, for which the “Binding (%)” value was 47.8%.
On the same count and under the same terms, then B2, with 24.4%; and B3, with 40.1%; and B4, with 30.6%.
Turning to B5, the “Binding (%)” value worked out at 51.4%.

For another test, the target named is target antigen of mab 231 on canine lymphoma cells (canine). The test is described as follows: FACS on canine lymphoma cells positive for the mab 231 antigen, FITC anti-dog IgG secondary.
Turning to B6, the Binding (%) amounted to 30.3%.
On the same count and under the same terms, then B7, with 20.8%.
